Source: the RNAGym collection of RNA variant scans (doi:10.7554/elife.90254)

B1: OR4K15 (parent)
chain: GUUAACGGUCAUAGGCCAUGGAAACUAGGAGCACCAUUUCGCUGCCAGUGAAGAAAUGAACAAAGAAAAUCUGGGCCAGGCAGGCAUCAAAAGAAAUAGUCUUGCGCUCAACCAGAAAGUCUGUAAUCAUUUUAAGGGUA

Variants of: B1
Test: self-cleavage, relative activity (ratio to wild type); higher = more cleavage; in vitro, sequencing; the parent is a self-cleaving ribozyme

Q: With GUUAACGGUCAUAGGCCAUGGAAACUAGGAGCACCAUUUCGCUGCCAGUGGAGAAAUGGACAAAGAAAAUCUGGGCCAGGCAGGCAUCAAAAGAAAUAGUCUUGCGCUCAACCAGAAAGUCUGUAAUCAUUUUAAGGGUA [A51G A59G] as the variant, how does the self-cleavage read?
A: 0.89

Q: Which self-cleavage does the source give for GUUAACGGUCAUAGGCCAUGGAACCUAGGAGCACCAUUUCGCUGCCAGUGAAGAAAUGAACAAAGAAAAUCUGGGCCAGACAGGCAUCAAAAGAAAUAGUCUUGCGCUCAACCAGAAAGUCUGUAAUCAUUUUAAGGGUA [A24C G80A] here?
A: 0.19

Q: With GUUAACGGUCAUAGGCCAUGGAAACUAGGAGCACCAUUUCGCUGCCAGUGAAGAAAUGAACAAAGAAAGUCUGGGCCAGGCAGGCAUCAAAAGAAAUAGUCUUCCGCUCAACCAGAAAGUCUGUAAUCAUUUUAAGGGUA [A69G G104C] as the variant, how does the self-cleavage read?
A: 0.01

Q: For GUUAACGGUCAUAGGCCAUGGAAACUAGGAGCACCAUUUCGCUGCCAGUGAAGAAAUGAACAAAGAAAAUCUGGGCCAGGCAGGCAUCAAAAGAAAUAGUCUUGCGCCCAACCAGAAAGUCUGUAAUGAUUUUAAGGGUA [U108C C128G], which self-cleavage is on record?
A: 0.01

Q: Which self-cleavage does the source give for GUUAACGGUCAUAGGCCAUGGAAACUAGGAGCACCAUUUCGCUGCCAGUGAAGAAAUGAACAAAGAAAAUCUGGGCCAGGCAGGCAUCAAAAGAAUUAGUCUUGCGCUCAACCAGAAAGUCUGUAAUCAUUGUAAGGGUA [A96U U132G] here?
A: 1.55

Q: For GUUAACGGUCAUAGGCCAUGGAAACUAGGAGCACCAUUUCGCUGCCAGUGAAGAAAUGAACAAAGAAAAUCUGGGCCAGGCAGGCAUCAAAAGAAAUAGUCUUGCGCUCAACCCGAAAGUCUGUAGUCAUUUUAAGGGUA [A114C A126G], which self-cleavage is on record?
A: 0.02

Q: With GUUAACGGUCAUAGGCCAUGGAGACUAGGAGCACCAUUUCGCAGCCAGUGAAGAAAUGAACAAAGAAAAUCUGGGCCAGGCAGGCAUCAAAAGAAAUAGUCUUGCGCUCAACCAGAAAGUCUGUAAUCAUUUUAAGGGUA [A23G U43A] as the variant, how does the self-cleavage read?
A: 0.88

Q: With GUCAACGGUCAUAGGCCAUGGAAACUAGGAGUACCAUUUCGCUGCCAGUGAAGAAAUGAACAAAGAAAAUCUGGGCCAGGCAGGCAUCAAAAGAAAUAGUCUUGCGCUCAACCAGAAAGUCUGUAAUCAUUUUAAGGGUA [U3C C32U] as the variant, how does the self-cleavage read?
A: 1.2

Q: For GUUAACGGUCAUAGGCCAUUGAAACUAGGAGCACCAUUUCGCUGCCAGUGAAGAAAUGAACAAAGAAAAUCUGGGCCAGGCAGGCAUCAAAAGAAAUAGCCUUGCGCUCAACCAGAAAGUCUGUAAUCAUUUUAAGGGUA [G20U U100C], which self-cleavage is on record?
A: 2.46

Q: With GUUAACGGUCAUAGGCCAUGGAAACUAGGAGCACCAUUUCGCUGCCAGUGAAGAAAUGAACAGAGAAAAUCUGGGCCAGGCAGGCAUCAAAAGAAAUAGUCUUGCGCUCAUCCAGAAAGUCUGUAAUCAUUUUAAGGGUA [A63G A111U] as the variant, how does the self-cleavage read?
A: 0.18

Q: For GUUAACGGUCGUAGGCCAUGGAAACUAGGAGCACCAUUUCGCCGCCAGUGAAGAAAUGAACAAAGAAAAUCUGGGCCAGGCAGGCAUCAAAAGAAAUAGUCUUGCGCUCAACCAGAAAGUCUGUAAUCAUUUUAAGGGUA [A11G U43C], which self-cleavage is on record?
A: 0.92

Q: For GAUAGCGGUCAUAGGCCAUGGAAACUAGGAGCACCAUUUCGCUGCCAGUGAAGAAAUGAACAAAGAAAAUCUGGGCCAGGCAGGCAUCAAAAGAAAUAGUCUUGCGCUCAACCAGAAAGUCUGUAAUCAUUUUAAGGGUA [U2A A5G], which self-cleavage is on record?
A: 1.24

Q: For GUUAACGGUCAUAGGCCAUGGAAACUAGGAGCACCAUUUCGCUGCCCGUGAAGGAAUGAACAAAGAAAAUCUGGGCCAGGCAGGCAUCAAAAGAAAUAGUCUUGCGCUCAACCAGAAAGUCUGUAAUCAUUUUAAGGGUA [A47C A54G], which self-cleavage is on record?
A: 1.5

Q: With GUUAACGGUCAUAGGCCAUGGAAACUAGGAGCACCAUUUCGCUGCCAGUGAAGAAAUGAACAAAGAAAACCUGGGCCAGGCAGGCAUCAAAAGAAAUAGUCUUGCGCUCAACCAGAAAGACUGUAAUCAUUUUAAGGGUA [U70C U120A] as the variant, how does the self-cleavage read?
A: 0.8

Q: With GCUAACGGUCAUAGGCCAUGGAAACUAGGAGCACCAUUUCGCUGCCAGUGAAGAAAUGAACAAAGAAAAUCUGGGCCAGGCGGGCAUCAAAAGAAAUAGUCUUGCGCUCAACCAGAAAGUCUGUAAUCAUUUUAAGGGUA [U2C A82G] as the variant, how does the self-cleavage read?
A: 0.55

Q: Which self-cleavage does the source give for GUUAACGGUCAUAGGCCAUGGAAAUUAGGAGCACCAUUUCGCUGCCAGUGAAGAAGUGAACAAAGAAAAUCUGGGCCAGGCAGGCAUCAAAAGAAAUAGUCUUGCGCUCAACCAGAAAGUCUGUAAUCAUUUUAAGGGUA [C25U A56G] here?
A: 0.46

Q: With GUUAACGGUCAUAGGCCAUGGAAACAAGGAGCACCAUUUCGCUGCCAGUGAAGAAAUGAACAAAGAAAAUCUGGGCCAGGCAGGCAUCAAAAGAAAUAGUCUUGCGCUCAACCAGAAAGUCCGUAAUCAUUUUAAGGGUA [U26A U122C] as the variant, how does the self-cleavage read?
A: 0.72

Q: Which self-cleavage does the source give for GUUAACGGUCAUAGGCCAUGGAAACUAGGAGCACCAUUUCGCUGCCAGUGAAGAAAUGAACAAAGAAAAUCUGGGCCAGGCAGGCAUCAAAAGAAUUAGUCUUGCGCUCAACCAGAAAGUCUGUAAUCACUUUAAGGGUA [A96U U130C] here?
A: 1.13

Q: With GUUAACGGUCAUAGGCCAUGGAAACUAGGAGUACCAUUUCGCUGCCAGUGAAGAAAUGAACAAGGAAAAUCUGGGCCAGGCAGGCAUCAAAAGAAAUAGUCUUGCGCUCAACCAGAAAGUCUGUAAUCAUUUUAAGGGUA [C32U A64G] as the variant, how does the self-cleavage read?
A: 1.66

Q: For GUUAACGGUCAUAGGCCAUGGAAACUAGGAGCACCAUUUCGCUGCCAGUGAAGAAAUGAACGAAGAAAAUCUGGGCCAGGCAGGCAUCAAAAGAAAUAGUCUUGCGCUCAACCAGAAAGUCUGUAGUCAUUUUAAGGGUA [A62G A126G], which self-cleavage is on record?
A: 2.05

Q: For GUUAACGGUCAUAGGCCAUGGAAACUAGGAGCACCAUUUCGCUGCCAGUGAAGAAAUGAACAAAGAAAAUCUGGGCCGGGCAGGCAUCAAAAGAAAUAGUCUUGCGCUCAACCAGAAAGUCUGUAAUCAUUUUAAGGGUA [A78G], which self-cleavage is on record?
A: 0.22

Q: Which self-cleavage does the source give for GUUAACGGUCAUAGGCCAUGGAAACUAGGAGCACCAUUUCGCUGCCAGUGAAGAAACGAACAAAGAAAAUCUGGGCCAGGCAGGCAUCAAAAGAAAUAGUCUUGCGCUCAACCAGAGAGUCUGUAAUCAUUUUAAGGGUA [U57C A117G] here?
A: 0.84

Q: With GUUAACGGUCAUAGGCCAUGGAAACUAGGAGCACCAUUUCGCUGCCAGUGAAGAAAAGAACAAAGAAAAUCUGGGCCAGGCAGGCAUCUAAAGAAAUAGUCUUGCGCUCAACCAGAAAGUCUGUAAUCAUUUUAAGGGUA [U57A A89U] as the variant, how does the self-cleavage read?
A: 0.95

Q: Which self-cleavage does the source give for GUUAACGGUCAUAGGCCACGGAAACUAGGAGCACCAUUUCGCUGCCAGUGAAGAAAUGAACAAAGAAAAUCUGGGCCAGGCAGGCAUCAAAAGAAAUAGUCUUGCGCUCAACCAGAAAGUCUGUAUUCAUUUUAAGGGUA [U19C A126U] here?
A: 0.65

Q: With GUUAACGGUCAUAGGCCAAGGAAACUAGGAGCACCAUUUCGCUGCCAGUGAAGAAAUGAACAAAGAAAACCUGGGCCAGGCAGGCAUCAAAAGAAAUAGUCUUGCGCUCAACCAGAAAGUCUGUAAUCAUUUUAAGGGUA [U19A U70C] as the variant, how does the self-cleavage read?
A: 1.06

Q: For GUUAACGGUCAUAGGCCAUGGAAACUAGGAGCACCAUUUCGCUGCCAGUGAAGAACUGAACAAAGAAAAUCUGGGCCAGGCGGGCAUCAAAAGAAAUAGUCUUGCGCUCAACCAGAAAGUCUGUAAUCAUUUUAAGGGUA [A56C A82G], which self-cleavage is on record?
A: 0.56

Q: With GUUAACGGUCAUAGGCCAUGGAAACUAGGAGCACCAUUUCGCUGCCAGCGAAGAAAUGAACAAAGAAAAUCUGGGCCAGGCAGGCAUCUAAAGAAAUAGUCUUGCGCUCAACCAGAAAGUCUGUAAUCAUUUUAAGGGUA [U49C A89U] as the variant, how does the self-cleavage read?
A: 2.12

Q: Which self-cleavage does the source give for GUUAACGGUCAUAGGCCAUGGAAACUAGGAGCACCAUUUCGCUGCCAGUGAAGAAAUGAACAAAGAAAAUCUGGGCCAGGCGGGCAUCAAAAGGAAUAGUCUUGCGCUCAACCAGAAAGUCUGUAAUCAUUUUAAGGGUA [A82G A94G] here?
A: 0.32

Q: Which self-cleavage does the source give for GUUAACGGUCAUAGGCCAUGGAAACUAGGAGCACCAUUUCGCUACCAGUGAAGAAAUGAACAAAGAAAAUCUGGGCCAGGCAGGCAUCAAAAGAAAUAGUCUUGCGCUCAACCAGAGAGUCUGUAAUCAUUUUAAGGGUA [G44A A117G] here?
A: 1.66

Q: For GCCAACGGUCAUAGGCCAUGGAAACUAGGAGCACCAUUUCGCUGCCAGUGAAGAAAUGAACAAAGAAAAUCUGGGCCAGGCAGGCAUCAAAAGAAAUAGUCUUGCGCUCAACCAGAAAGUCUGUAAUCAUUUUAAGGGUA [U2C U3C], which self-cleavage is on record?
A: 0.98

Q: Which self-cleavage does the source give for GUUAACGGUCAUAGGCCAUGGAAACUAGGAGCACCAUUUCGCUGCCAGUGAAGAAAUGAACAAAGAAAAUCUGGGCCAGGCUGGCAUCAAAAGAAAUAGUCUUGCGCUCAACCAGAAAGUCUGUAAUCACUUUAAGGGUA [A82U U130C] here?
A: 0.14

Q: Which self-cleavage does the source give for GUUAACGGUCAUAGGCCAUGGAAACUAGGAGCACCAUUUCGCUGCCAGUGAAGAAAUGAACAAAGAAAAUCUGGGCCAGGCAGGCAUCAAAAGAAAUAGUCUAGCGCUCAACCAGAAAGUCUGUAAUCAUGUUAAGGGUA [U103A U131G] here?
A: 0.22

Q: Which self-cleavage does the source give for GUUAACGGUCAUAGGCCAUGGAAACUAGGAGCACCAUUCCGCUGCCAGUGAAGAAAUGAACAAAGAAAAUCUGGGCCAGGCAGGCAUCAAAAGAAAUAGUCUUGCGCUCAACCAGAAAGUCUGUAAUCAUUUCAAGGGUA [U39C U133C] here?
A: 2.27

Q: Which self-cleavage does the source give for GUUAACGGUCAUAGGCCAUGGAAACUAGGAGCGCCAUUUCGCUGCCAGUGAAGAAAUGAACAAAGAAAAUCUGGGCCAGGCAGGCAUCAAAAGAAAUAGUCUUGCGCUCAACCAGAAAGUCUGUAAUCGUUUUAAGGGUA [A33G A129G] here?
A: 0.35

Q: With GUUGACGGUCAUAGGCCAUGGAAACUAGGAGCACCAUUUCGCUGCCAGUGAAGAAAUGAACAAAGAAAAUCUGGGCCAGGCAGGCAUCAAAAGAAAUAGUCUUGCGCUCAACCAGAAAGUCUGUAAUCAUUUUAAGUGUA [A4G G137U] as the variant, how does the self-cleavage read?
A: 2

Q: Which self-cleavage does the source give for GUUAACGGUCAUAGGCCAUGGAAACUAGGAACACCAUUUCGCUGCCAGUGAAGAAAUGAACAAAGAAAAUCUGGGCCAGGCAGGCAUCAAAAGAAAUAGUCUUGCGCUCAACCAGAAAGUCUGUAAUCACUUUAAGGGUA [G31A U130C] here?
A: 1.91

Q: For GUUAACGGUCAUAGGCCAUGGAAACUAGGAGCACCAUUUCGCUGCCAGUGAAGAAAUGAACAAAGAAAAUCUGGGCCAGGCAGGCAUCAAAAGAAAUAGUCUUGCGCUCAACCAGAAAGUCUGUAAUCAAUUUAAGGGUG [U130A A140G], which self-cleavage is on record?
A: 1.02

Q: Which self-cleavage does the source give for GUUAACGGUCAUAGGCCAUGGAAACUAGGAGCACCAUUUCGCCGCCAGUGAAGAAAUGAACAAAGAAAAUCUGGGCCAGGCAGGCAUCAAAAGAAAUAGUCUUGCGCUCAACCAGAAGGUCUGUAAUCAUUUUAAGGGUA [U43C A118G] here?
A: 1.02

Q: With GUUAACGGUCAUAGGCCAUGGAAACUAGGAGCACCAUUUCGCUGCCAGUGAAGAAAUGAACAAAGAAAAUCUGGGCCAGGCAGGCAUCGAAAGAAAUAGUCUUGCGCUCAACCAGAAACUCUGUAAUCAUUUUAAGGGUA [A89G G119C] as the variant, how does the self-cleavage read?
A: 1.62

Q: With GUUAACGGUCAUAGGCCAUGGAAACUAGGAGCACCAUUUCGCUGCCAGUGAAGAAGUGAACAAAGAAAAUCUGGGCCAGGCAGGCAUCAAAAGAAAUAGUCUUGCGCUCAACCAGAACGUCUGUAAUCAUUUUAAGGGUA [A56G A118C] as the variant, how does the self-cleavage read?
A: 0.64
